Laboratory results taken from PMC8844116.

B1: Flag-RAGE wild type (LV-Flag-RAGE-wt, wild-type ctRAGE) [mouse] / mitogen-activated protein kinase kinase 3 (MKK3), endogenous in mouse hippocampus and HT22 cells [mouse (endogenous in hippocampus and in HT22)] (parent)
chain 1: GQNITARIGEPLVLSCKGAPKKPPQQLEWKLNTGRTEAWKVLSPQGGPWDSVARILPNGSLLLPATGIVDEGTFRCRATNRRGKEVKSNYRVRVYQIPGKPEIVDPASELTASVPNKVGTCVSEGSYPAGTLSWHLDGKLLIPDGKETLVKEETRRHPETGLFTLRSELTVIPTQGGTHPTFSCSFSLGLPRRRPLNTAPIQLRVREPGPPEGIQLLVEPEGGIVAPGGTVTLTCAISAQPPPQVHWIKDGAPLPLAPSPVLLLPEVGHEDEGTYSCVATHPSHGPQESPPVSIRVTETGDEGPAEGSVGESGLGTLALALGILGGLGVVALLVGAILWRKRQPRREERKAPESQEDEEERAELNQSEEAEMPENGAGGP
chain 2: MESPAASPPASLPQTKGKSKRKKDLRISCVSKPPVSNPTPPRNLDSRTFITIGDRNFEVEADDLVTISELGRGAYGVVEKVRHAQSGTIMAVKRIRATVNTQEQKRLLMDLDINMRTVDCFYTVTFYGALFREGDVWICMELMDTSLDKFYRKVLEKNMKIPEDILGEIAVSIVRALEHLHSKLSVIHRDVKPSNVLINKEGHVKMCDFGISGYLVDSVAKTMDAGCKPYMAPERINPELNQKGYNVKSDVWSLGITMIEMAILRFPYESWGTPFQQLKQVVEEPSPQLPADQFSPEFVDFTSQCLRKNPAERMSYLELMEHPFFTLHKTKKTDIAAFVKEILGEDS

Variants of: B1
Test: co-immunoprecipitation (IP: Flag-RAGE, IB: MKK3), optical density of blot
Conditions: with mitogen-activated protein kinase kinase 3 (MKK3), HT22 cells with RAGE-shRNA knockdown, high glucose, n = 3, parent: 6, read off a plot

| Variant | response (fold change to HG + RAGE-shRNA group) |
| --- | --- |
| chain 1 GQNITARIGEPLVLSCKGAPKKPPQQLEWKLNTGRTEAWKVLSPQGGPWDSVARILPNGSLLLPATGIVDEGTFRCRATNRRGKEVKSNYRVRVYQIPGKPEIVDPASELTASVPNKVGTCVSEGSYPAGTLSWHLDGKLLIPDGKETLVKEETRRHPETGLFTLRSELTVIPTQGGTHPTFSCSFSLGLPRRRPLNTAPIQLRVREPGPPEGIQLLVEPEGGIVAPGGTVTLTCAISAQPPPQVHWIKDGAPLPLAPSPVLLLPEVGHEDEGTYSCVATHPSHGPQESPPVSIRVTETGDEGPAEGSVGESGLGTLALALGILGGLGVVALLVGAILWAAAAPRREERKAPESQEDEEERAELNQSEEAEMPENGAGGP [chain 1 R340A K341A R342A Q343A] | 1.6 |

Same assay, conditions: with mitogen-activated protein kinase kinase 3 (MKK3), hippocampus of db/db mice with LV-RAGE-shRNA, n = 3, parent: 3, read off a plot

| Variant | response (fold change to db/db + RAGE-shRNA group) |
| --- | --- |
| chain 1 GQNITARIGEPLVLSCKGAPKKPPQQLEWKLNTGRTEAWKVLSPQGGPWDSVARILPNGSLLLPATGIVDEGTFRCRATNRRGKEVKSNYRVRVYQIPGKPEIVDPASELTASVPNKVGTCVSEGSYPAGTLSWHLDGKLLIPDGKETLVKEETRRHPETGLFTLRSELTVIPTQGGTHPTFSCSFSLGLPRRRPLNTAPIQLRVREPGPPEGIQLLVEPEGGIVAPGGTVTLTCAISAQPPPQVHWIKDGAPLPLAPSPVLLLPEVGHEDEGTYSCVATHPSHGPQESPPVSIRVTETGDEGPAEGSVGESGLGTLALALGILGGLGVVALLVGAILWAAAAPRREERKAPESQEDEEERAELNQSEEAEMPENGAGGP [chain 1 R340A K341A R342A Q343A] | 1.4 |

Variants of: B1
Test: co-immunoprecipitation (IP: MKK3, IB: Flag-RAGE), optical density of blot
Conditions: with mitogen-activated protein kinase kinase 3 (MKK3), HT22 cells with RAGE-shRNA knockdown, high glucose, n = 3, parent: 6.8, read off a plot

| Variant | response (fold change to HG + RAGE-shRNA group) |
| --- | --- |
| chain 1 GQNITARIGEPLVLSCKGAPKKPPQQLEWKLNTGRTEAWKVLSPQGGPWDSVARILPNGSLLLPATGIVDEGTFRCRATNRRGKEVKSNYRVRVYQIPGKPEIVDPASELTASVPNKVGTCVSEGSYPAGTLSWHLDGKLLIPDGKETLVKEETRRHPETGLFTLRSELTVIPTQGGTHPTFSCSFSLGLPRRRPLNTAPIQLRVREPGPPEGIQLLVEPEGGIVAPGGTVTLTCAISAQPPPQVHWIKDGAPLPLAPSPVLLLPEVGHEDEGTYSCVATHPSHGPQESPPVSIRVTETGDEGPAEGSVGESGLGTLALALGILGGLGVVALLVGAILWAAAAPRREERKAPESQEDEEERAELNQSEEAEMPENGAGGP [chain 1 R340A K341A R342A Q343A] | 1.8 |

Same assay, conditions: with mitogen-activated protein kinase kinase 3 (MKK3), hippocampus of db/db mice with LV-RAGE-shRNA, n = 3, parent: 3.4, read off a plot

| Variant | response (fold change to db/db + RAGE-shRNA group) |
| --- | --- |
| chain 1 GQNITARIGEPLVLSCKGAPKKPPQQLEWKLNTGRTEAWKVLSPQGGPWDSVARILPNGSLLLPATGIVDEGTFRCRATNRRGKEVKSNYRVRVYQIPGKPEIVDPASELTASVPNKVGTCVSEGSYPAGTLSWHLDGKLLIPDGKETLVKEETRRHPETGLFTLRSELTVIPTQGGTHPTFSCSFSLGLPRRRPLNTAPIQLRVREPGPPEGIQLLVEPEGGIVAPGGTVTLTCAISAQPPPQVHWIKDGAPLPLAPSPVLLLPEVGHEDEGTYSCVATHPSHGPQESPPVSIRVTETGDEGPAEGSVGESGLGTLALALGILGGLGVVALLVGAILWAAAAPRREERKAPESQEDEEERAELNQSEEAEMPENGAGGP [chain 1 R340A K341A R342A Q343A] | 1.9 |
